Data taken from US20060251655A1.

B1: W688stop (C-terminal deletion variant of ADAMTS-13, FLAG appended) (protein)
chain: PSHFQQSCLQALEPQAVSSYLSPGAPLKGRPPSPGFQRQRQRQRRAAGGILHLELLVAVGPDVFQAHQEDTERYVLTNLNIGAELLRDPSLGAQFRVHLVKMVILTEPEGAPNITANLTSSLLSVCGWSQTINPEDDTDPGHADLVLYITRFDLELPDGNRQVRGVTQLGGACSPTWSCLITEDTGFDLGVTIAHEIGHSFGLEHDGAPGSGCGPSGHVMASDGAAPRAGLAWSPCSRRQLLSLLSAGRARCVWDPPRPQPGSAGHPPDAQPGLYYSANEQCRVAFGPKAVACTFAREHLDMCQALSCHTDPLDQSSCSRLLVPLLDGTECGVEKWCSKGRCRSLVELTPIAAVHGRWSSWGPRSPCSRSCGGGVVTRRRQCNNPRPAFGGRACVGADLQAEMCNTQACEKTQLEFMSQQCARTDGQPLRSSPGGASFYHWGAAVPHSQGDALCRHMCRAIGESFIMKRGDSFLDGTRCMPSGPREDGTLSLCVSGSCRTFGCDGRMDSQQVWDRCQVCGGDNSTCSPRKGSFTAGRAREYVTFLTVTPNLTSVYIANHRPLFTHLAVRIGGRYVVAGKMSISPNTTYPSLLEDGRVEYRVALTEDRLPRLEEIRIWGPLQEDADIQVYRRYGEEYGNLTRPDITFTYFQPKPRQAWVWDYKDDDDK
B2: T1135stop (C-terminal deletion variant of ADAMTS-13, FLAG appended) (protein)
chain: PSHFQQSCLQALEPQAVSSYLSPGAPLKGRPPSPGFQRQRQRQRRAAGGILHLELLVAVGPDVFQAHQEDTERYVLTNLNIGAELLRDPSLGAQFRVHLVKMVILTEPEGAPNITANLTSSLLSVCGWSQTINPEDDTDPGHADLVLYITRFDLELPDGNRQVRGVTQLGGACSPTWSCLITEDTGFDLGVTIAHEIGHSFGLEHDGAPGSGCGPSGHVMASDGAAPRAGLAWSPCSRRQLLSLLSAGRARCVWDPPRPQPGSAGHPPDAQPGLYYSANEQCRVAFGPKAVACTFAREHLDMCQALSCHTDPLDQSSCSRLLVPLLDGTECGVEKWCSKGRCRSLVELTPIAAVHGRWSSWGPRSPCSRSCGGGVVTRRRQCNNPRPAFGGRACVGADLQAEMCNTQACEKTQLEFMSQQCARTDGQPLRSSPGGASFYHWGAAVPHSQGDALCRHMCRAIGESFIMKRGDSFLDGTRCMPSGPREDGTLSLCVSGSCRTFGCDGRMDSQQVWDRCQVCGGDNSTCSPRKGSFTAGRAREYVTFLTVTPNLTSVYIANHRPLFTHLAVRIGGRYVVAGKMSISPNTTYPSLLEDGRVEYRVALTEDRLPRLEEIRIWGPLQEDADIQVYRRYGEEYGNLTRPDITFTYFQPKPRQAWVWAAVRGPCSVSCGAGLRWVNYSCLDQARKELVETVQCQGSQQPPAWPEACVLEPCPPYWAVGDFGPCSASCGGGLRERPVRCVEAQGSLLKTLPPARCRAGAQQPAVALETCNPQPCPARWEVSEPSSCTSAGGAGLALENETCVPGADGLEAPVTEGPGSVDEKLPAPEPCVGMSCPPGWGHLDATSAGEKAPSPWGSIRTGAQAAHVWTPAAGSCSVSCGRGLMELRFLCMDSALRVPVQEELCGLASKPGSRREVCQAVPCPARWQYKLAACSVSCGRGVVRRILYCARAHGEDDGEEILLDTQCQGLPRPEPQEACSLEPCPPRWKVMSLGPCSASCGLGTARRSVACVQLDQGQDVEVDEAACAALVRPEASVPCLIADCTYRWHVGTWMECSVSCGDGIQRRRDTCLGPQAQAPVPADFCQHLPKPVTVRGCWAGPCVGQGTDYKDDDDK
B3: recombinant ADAMTS-13 (von Willebrand factor specific cleaving enzyme), expressed in human embryo kidney cell line 293 (protein)
chain: AAGGILHLELLVAVGPDVFQAHQEDTERYVLTNLNIGAELLRDPSLGAQFRVHLVKMVILTEPEGAPNITANLTSSLLSVCGWSQTINPEDDTDPGHADLVLYITRFDLELPDGNRQVRGVTQLGGACSPTWSCLITEDTGFDLGVTIAHEIGHSFGLEHDGAPGSGCGPSGHVMASDGAAPRAGLAWSPCSRRQLLSLLSAGRARCVWDPPRPQPGSAGHPPDAQPGLYYSANEQCRVAFGPKAVACTFAREHLDMCQALSCHTDPLDQSSCSRLLVPLLDGTECGVEKWCSKGRCRSLVELTPIAAVHGRWSSWGPRSPCSRSCGGGVVTRRRQCNNPRPAFGGRACVGADLQAEMCNTQACEKTQLEFMSQQCARTDGQPLRSSPGGASFYHWGAAVPHSQGDALCRHMCRAIGESFIMKRGDSFLDGTRCMPSGPREDGTLSLCVSGSCRTFGCDGRMDSQQVWDRCQVCGGDNSTCSPRKGSFTAGRAREYVTFLTVTPNLTSVYIANHRPLFTHLAVRIGGRYVVAGKMSISPNTTYPSLLEDGRVEYRVALTEDRLPRLEEIRIWGPLQEDADIQVYRRYGEEYGNLTRPDITFTYFQPKPRQAWVWAAVRGPCSVSCGAGLRWVNYSCLDQARKELVETVQCQGSQQPPAWPEACVLEPCPPYWAVGDFGPCSASCGGGLRERPVRCVEAQGSLLKTLPPARCRAGAQQPAVALETCNPQPCPARWEVSEPSSCTSAGGAGLALENETCVPGADGLEAPVTEGPGSVDEKLPAPEPCVGMSCPPGWGHLDATSAGEKAPSPWGSIRTGAQAAHVWTPAAGSCSVSCGRGLMELRFLCMDSALRVPVQEELCGLASKPGSRREVCQAVPCPARWQYKLAACSVSCGRGVVRRILYCARAHGEDDGEEILLDTQCQGLPRPEPQEACSLEPCPPRWKVMSLGPCSASCGLGTARRSVACVQLDQGQDVEVDEAACAALVRPEASVPCLIADCTYRWHVGTWMECSVSCGDGIQRRRDTCLGPQAQAPVPADFCQHLPKPVTVRGCWAGPCVGQGTPSLVPHEEAAAPGRTTATPAGASLEWSQARGLLFSPAPQPRRLLPGPQENSVQSSACGRQHLEPTGTIDMRGPGQADCAVAIGRPLGEVVTLRVLESSLNCSAGDMLLLWGRLTWRKMCRKLLDMTFSSKTNTLVVRQRCGRPGGGVLLRYGSQLAPETFYRECDMQLFGPWGEIVSPSLSPATSNAGGCRLFINVAPHARIAIHALATNMGAGTEGANASYILIRDTHSLRTTAFHGQQVLYWESESSQAEMEFSEGFLKAQASLRGQYWTLQSWVPEMQDPQSWKGKEGT
B4: Q449stop (C-terminal deletion variant of ADAMTS-13, FLAG appended) (protein)
chain: PSHFQQSCLQALEPQAVSSYLSPGAPLKGRPPSPGFQRQRQRQRRAAGGILHLELLVAVGPDVFQAHQEDTERYVLTNLNIGAELLRDPSLGAQFRVHLVKMVILTEPEGAPNITANLTSSLLSVCGWSQTINPEDDTDPGHADLVLYITRFDLELPDGNRQVRGVTQLGGACSPTWSCLITEDTGFDLGVTIAHEIGHSFGLEHDGAPGSGCGPSGHVMASDGAAPRAGLAWSPCSRRQLLSLLSAGRARCVWDPPRPQPGSAGHPPDAQPGLYYSANEQCRVAFGPKAVACTFAREHLDMCQALSCHTDPLDQSSCSRLLVPLLDGTECGVEKWCSKGRCRSLVELTPIAAVHGRWSSWGPRSPCSRSCGGGVVTRRRQCNNPRPAFGGRACVGADLQAEMCNTQACEKTQLEFMSQQDYKDDDDK
B5: Full 1427stop (FLAG tagged ADAMTS-13 wild type) (protein)
chain: PSHFQQSCLQALEPQAVSSYLSPGAPLKGRPPSPGFQRQRQRQRRAAGGILHLELLVAVGPDVFQAHQEDTERYVLTNLNIGAELLRDPSLGAQFRVHLVKMVILTEPEGAPNITANLTSSLLSVCGWSQTINPEDDTDPGHADLVLYITRFDLELPDGNRQVRGVTQLGGACSPTWSCLITEDTGFDLGVTIAHEIGHSFGLEHDGAPGSGCGPSGHVMASDGAAPRAGLAWSPCSRRQLLSLLSAGRARCVWDPPRPQPGSAGHPPDAQPGLYYSANEQCRVAFGPKAVACTFAREHLDMCQALSCHTDPLDQSSCSRLLVPLLDGTECGVEKWCSKGRCRSLVELTPIAAVHGRWSSWGPRSPCSRSCGGGVVTRRRQCNNPRPAFGGRACVGADLQAEMCNTQACEKTQLEFMSQQCARTDGQPLRSSPGGASFYHWGAAVPHSQGDALCRHMCRAIGESFIMKRGDSFLDGTRCMPSGPREDGTLSLCVSGSCRTFGCDGRMDSQQVWDRCQVCGGDNSTCSPRKGSFTAGRAREYVTFLTVTPNLTSVYIANHRPLFTHLAVRIGGRYVVAGKMSISPNTTYPSLLEDGRVEYRVALTEDRLPRLEEIRIWGPLQEDADIQVYRRYGEEYGNLTRPDITFTYFQPKPRQAWVWAAVRGPCSVSCGAGLRWVNYSCLDQARKELVETVQCQGSQQPPAWPEACVLEPCPPYWAVGDFGPCSASCGGGLRERPVRCVEAQGSLLKTLPPARCRAGAQQPAVALETCNPQPCPARWEVSEPSSCTSAGGAGLALENETCVPGADGLEAPVTEGPGSVDEKLPAPEPCVGMSCPPGWGHLDATSAGEKAPSPWGSIRTGAQAAHVWTPAAGSCSVSCGRGLMELRFLCMDSALRVPVQEELCGLASKPGSRREVCQAVPCPARWQYKLAACSVSCGRGVVRRILYCARAHGEDDGEEILLDTQCQGLPRPEPQEACSLEPCPPRWKVMSLGPCSASCGLGTARRSVACVQLDQGQDVEVDEAACAALVRPEASVPCLIADCTYRWHVGTWMECSVSCGDGIQRRRDTCLGPQAQAPVPADFCQHLPKPVTVRGCWAGPCVGQGTPSLVPHEEAAAPGRTTATPAGASLEWSQARGLLFSPAPQPRRLLPGPQENSVQSSACGRQHLEPTGTIDMRGPGQADCAVAIGRPLGEVVTLRVLESSLNCSAGDMLLLWGRLTWRKMCRKLLDMTFSSKTNTLVVRQRCGRPGGGVLLRYGSQLAPETFYRECDMQLFGPWGEIVSPSLSPATSNAGGCRLFINVAPHARIAIHALATNMGAGTEGANASYILIRDTHSLRTTAFHGQQVLYWESESSQAEMEFSEGFLKAQASLRGQYWTLQSWVPEMQDPQSWKGKEGTDYKDDDDK
B6: W1016stop (C-terminal deletion variant of ADAMTS-13, FLAG appended) (protein)
chain: PSHFQQSCLQALEPQAVSSYLSPGAPLKGRPPSPGFQRQRQRQRRAAGGILHLELLVAVGPDVFQAHQEDTERYVLTNLNIGAELLRDPSLGAQFRVHLVKMVILTEPEGAPNITANLTSSLLSVCGWSQTINPEDDTDPGHADLVLYITRFDLELPDGNRQVRGVTQLGGACSPTWSCLITEDTGFDLGVTIAHEIGHSFGLEHDGAPGSGCGPSGHVMASDGAAPRAGLAWSPCSRRQLLSLLSAGRARCVWDPPRPQPGSAGHPPDAQPGLYYSANEQCRVAFGPKAVACTFAREHLDMCQALSCHTDPLDQSSCSRLLVPLLDGTECGVEKWCSKGRCRSLVELTPIAAVHGRWSSWGPRSPCSRSCGGGVVTRRRQCNNPRPAFGGRACVGADLQAEMCNTQACEKTQLEFMSQQCARTDGQPLRSSPGGASFYHWGAAVPHSQGDALCRHMCRAIGESFIMKRGDSFLDGTRCMPSGPREDGTLSLCVSGSCRTFGCDGRMDSQQVWDRCQVCGGDNSTCSPRKGSFTAGRAREYVTFLTVTPNLTSVYIANHRPLFTHLAVRIGGRYVVAGKMSISPNTTYPSLLEDGRVEYRVALTEDRLPRLEEIRIWGPLQEDADIQVYRRYGEEYGNLTRPDITFTYFQPKPRQAWVWAAVRGPCSVSCGAGLRWVNYSCLDQARKELVETVQCQGSQQPPAWPEACVLEPCPPYWAVGDFGPCSASCGGGLRERPVRCVEAQGSLLKTLPPARCRAGAQQPAVALETCNPQPCPARWEVSEPSSCTSAGGAGLALENETCVPGADGLEAPVTEGPGSVDEKLPAPEPCVGMSCPPGWGHLDATSAGEKAPSPWGSIRTGAQAAHVWTPAAGSCSVSCGRGLMELRFLCMDSALRVPVQEELCGLASKPGSRREVCQAVPCPARWQYKLAACSVSCGRGVVRRILYCARAHGEDDGEEILLDTQCQGLPRPEPQEACSLEPCPPRWDYKDDDDK

target: von Willebrand factor (vWF), prepared from plasma cryo fraction, P04275

| Protein | vWF cleaving activity (SDS-PAGE) | vWF cleaving activity |
| --- | --- | --- |
| B1 | vWF cleaving activity was clearly recognized from the full-length molecule to W688stop molecule |  |
| B2 | vWF cleaving activity was clearly recognized from the full-length molecule to W688stop molecule |  |
| B3 |  | It was also confirmed that the vWF cleaving activity exists in the obtained purified fraction |
| B4 |  | secretion into culture supernatant was observed but the enzyme activity was weak or not observed in a molecule consisting of amino acids up to the vicinity of the 449th |
| B5 | vWF cleaving activity was clearly recognized from the full-length molecule to W688stop molecule |  |
| B6 | vWF cleaving activity was clearly recognized from the full-length molecule to W688stop molecule |  |
